Experimental data from paper PMC5849709, “Structure-based design of chimeric antigens for multivalent protein vaccines” (Nature Communications, 2018).

T1: factor H binding protein (fHbp) peptide V1.1, N-terminally truncated, soluble (N. meningitidis, UniProt Q9JXV4 25-274)
T1 sequence: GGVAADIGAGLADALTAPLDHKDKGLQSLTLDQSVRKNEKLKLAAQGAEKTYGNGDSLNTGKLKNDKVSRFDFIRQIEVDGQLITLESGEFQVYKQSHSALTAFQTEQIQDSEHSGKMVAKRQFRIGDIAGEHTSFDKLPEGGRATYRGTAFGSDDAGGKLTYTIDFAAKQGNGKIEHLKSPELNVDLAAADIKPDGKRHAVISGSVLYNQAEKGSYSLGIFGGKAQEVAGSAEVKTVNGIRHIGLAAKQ


What was measured:
Assay in all cases: SPR
[1] = target: fHbp^V1.1:PorA^117/P1.16 (N. meningitidis) (UniProt Q9JXV4)
[2] = target: fHbp^V1.1:PorA^151/P1.16 (N. meningitidis) (UniProt Q9JXV4)
[3] = target: fHbp^V1.1:PorA^267/P1.16 (N. meningitidis) (UniProt Q9JXV4)
[4] = target: fHbp^V1.1:PorA^294/P1.16 (N. meningitidis)
[5] = target: fHbp^V1.1:PorA^309/P1.16 (N. meningitidis)
[6] = target: T1, factor H binding protein (fHbp) peptide …; conditions: both partners purified

| Molecule | Kd [1] | Kd [2] | Kd [3] | Kd [4] | Kd [5] | Kd [6] |
| --- | --- | --- | --- | --- | --- | --- |
| domains 6 and 7 of human complement factor H (CFH6/7) (from UniProt P08603 321-444) (domain or fragment) | 2.3 nM | 2.3 nM | 28 nM | 2.7 nM | 5.5 nM |  |
| domains 6 and 7 of human complement factor H (CFH6/7) (domain or fragment, UniProt P08603 321-444, looked up) TLKPCDYPDIKHGGLYHENMRRPYFPVAVGKYYSYYCDEHFETPSGSYWDHIHCTQDGWSPAVPCLRKCYFPYLENGYNQNYGRKFVQGKSIDVACHPGYALPKAQTTVTCMENGWSPTPRCIR |  |  |  |  |  | 3.6 ± 0.4 nM |
